Positions count from the first letter of the chain named. Each block holds one binder with its values, some of them ahead of it.
What was measured:
[1] = target: T1, mouse tissue factor pathway inhibitor (TFPI) (mouse, UniProt O54819 29-289, limits assumed); experiment: ELISA, Fab on coated mouse TFPI
T1 construct: Bought protein; also called mouse TFPI; mTFPI
T1 sequence (looked up): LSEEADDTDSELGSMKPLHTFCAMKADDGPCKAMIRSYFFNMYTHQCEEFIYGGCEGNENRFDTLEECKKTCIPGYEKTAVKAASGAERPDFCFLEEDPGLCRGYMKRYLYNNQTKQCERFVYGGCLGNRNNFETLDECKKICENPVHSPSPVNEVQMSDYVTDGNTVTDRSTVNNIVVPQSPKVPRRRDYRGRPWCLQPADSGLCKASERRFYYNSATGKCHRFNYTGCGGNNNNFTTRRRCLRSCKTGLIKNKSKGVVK
Procedure: To select antibody clones that bind to human TFPI, Fab genes of the phage clones from the second and third round of panning were subcloned into a bacterial expression vector and expressed in E. coli strain TG1. The bacterial lysate was added to the wells of the human TFPI-coated Maxisorp plates. After washing, HRP-conjugated goat anti-human Fab was used as a detection antibody and the plates were developed by adding AmplexRed (Invitrogen) with hydrogen peroxide. A signal of at least five-fold higher than the background was considered as positive. The cross reactivity of the anti-human TFPI antibodies to mouse TFPI was determined by a similar mouse TFPI-binding ELISA. The plates were coated with mouse TFPI (R&D System), BSA and lysozyme. The later two antigens were used as negative controls.

[2] = target: T2, human tissue factor pathway inhibitor (TFPI) (human, UniProt P10646 29-304, limits assumed); experiment: ELISA, Fab on coated TFPI
T2 construct: Bought protein; also called human TFPI; hTFPI
T2 sequence (looked up): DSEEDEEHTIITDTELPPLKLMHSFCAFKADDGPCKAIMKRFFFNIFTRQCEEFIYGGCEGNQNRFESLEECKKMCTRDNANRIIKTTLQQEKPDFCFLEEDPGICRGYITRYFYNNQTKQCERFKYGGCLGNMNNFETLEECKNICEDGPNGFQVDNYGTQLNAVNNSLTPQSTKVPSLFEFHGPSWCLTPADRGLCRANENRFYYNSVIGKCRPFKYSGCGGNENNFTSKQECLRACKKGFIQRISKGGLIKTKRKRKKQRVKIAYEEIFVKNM
In short: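 Purified Fabs titrated on human or mouse TFPI-coated plates; bound Fab detected with HRP anti-human Fab and AmplexRed/H2O2 to derive EC50. Affinity and kinetics by Biacore: TFPI amine-coupled on CM5 (~300 RU), Fabs in mobile phase at 0.1, 0.4, 1.6, 6.4 and 25 nM.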

[3] = target: T2, human tissue factor pathway inhibitor …; experiment: Biacore, TFPI on CM5 chip, Fab in mobile phase
In short: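 Surface plasmon resonance with human or mouse TFPI amine-coupled to a CM5 chip at approximately 300 RU. Purified Fabs were injected in mobile phase at 0.1, 0.4, 1.6, 6.4 and 25 nM. Kinetics and binding affinity were derived from the sensorgrams.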

[4] = target: T2, human tissue factor pathway inhibitor …; experiment: cell-based or functional assay
[5] = target: T3, BSA (bovine, UniProt P02769 25-607); experiment: ELISA
T3 construct: also called bovine serum albumin
T3 sequence (P02769 25-607 limits assumed): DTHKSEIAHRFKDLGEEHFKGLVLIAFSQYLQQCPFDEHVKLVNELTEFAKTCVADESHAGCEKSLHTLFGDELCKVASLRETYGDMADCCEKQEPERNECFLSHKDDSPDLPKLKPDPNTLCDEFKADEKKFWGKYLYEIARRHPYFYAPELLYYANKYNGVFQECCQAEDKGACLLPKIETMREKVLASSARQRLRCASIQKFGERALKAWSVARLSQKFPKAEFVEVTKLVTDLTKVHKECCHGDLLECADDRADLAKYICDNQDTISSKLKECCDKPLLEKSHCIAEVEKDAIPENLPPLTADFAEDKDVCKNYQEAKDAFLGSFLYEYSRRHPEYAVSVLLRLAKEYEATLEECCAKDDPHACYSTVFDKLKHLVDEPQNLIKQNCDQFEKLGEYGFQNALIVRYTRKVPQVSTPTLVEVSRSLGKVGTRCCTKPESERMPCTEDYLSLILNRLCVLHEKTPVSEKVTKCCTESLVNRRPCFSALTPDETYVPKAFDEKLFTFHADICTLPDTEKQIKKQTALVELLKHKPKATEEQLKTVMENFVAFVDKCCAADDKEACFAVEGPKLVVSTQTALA
In short: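 Fab from E. coli TG1 lysates bound to plates coated with human TFPI, or with mouse TFPI for cross-reactivity, with BSA and lysozyme as negative controls. Detection by HRP-anti-human Fab with AmplexRed/H2O2; signal ≥5-fold over background scored positive.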

[6] = target: T4, human TFPI K1 (human, UniProt P10646 29-107, limits assumed); experiment: Western blots and ELISA
T4 construct: domain: K1; also called Kunitz domain 1
T4 sequence (looked up): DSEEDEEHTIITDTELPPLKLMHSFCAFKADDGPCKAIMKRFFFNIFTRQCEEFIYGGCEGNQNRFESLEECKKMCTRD
Procedure: Western blots and ELISA were used to determine which domain(s) of TFPI of the inhibitory antibodies bind. Recombinant full length human TFPI or TFPI domains were used for these studies. ELISA was similar to Example 3. In the Western Blot, human TFPI or domains were run on 4-12% Bis-Tris SDS PAGE running buffer MES (Invitrogen, Carlsbad, Calif.) and then transferred to cellulose membrane. After incubation with inhibitory antibodies for 10 min, the membrane was washed three times using SNAPid system (Millipore, Billerica, Mass.). A HRP conjugated donkey anti-mouse antibody (Pierce, Rockford, Ill.) at 1 to 10,000 dilution was incubated with the membrane for 10 min. After a similar wash step, the membrane was developed using SuperSignal substrate (Pierce, Rockford, Ill.). Whereas the control anti-Kunitz domain 1 antibody binds to full length TFPI, truncated TFPI and domains, inhibitory anti-TFPI antibodies only bind to TFPI containing Kunitz domain 2.

[7] = target: T1, mouse tissue factor pathway inhibitor …; experiment: ELISA, IgG against Fab
[8] = target: T2, human tissue factor pathway inhibitor …; experiment: ELISA, IgG against Fab
[9] = target: T2, human tissue factor pathway inhibitor …; experiment: ELISA, IgG on coated human TFPI
[10] = target: T1, mouse tissue factor pathway inhibitor …; experiment: ELISA, IgG on coated mouse TFPI

B1: TP-4H8 Fab (Fab, V domains shown)
VH: QVQLVESGGGLVQPGGSLRLSCAASGFTFSDHAMHWVRQAPGKGLEWVSVIEYSGSKTNYADSVKGRFTISRDNSKNTLYLQMNSLRAEDTAVYYCARGDYYPYLVFAIWGQGTLVTVSS
VL: DIELTQPPSVSVAPGQTARISCSGDSIGKKYVHWYQQKPGQAPVLVIYGDNNRPSGIPERFSGSNSGNTATLTISGTQAEDEADYYCSTADSVITYKNVFGGGTKLTVLG
notes: Human Fab from HuCal Gold, expressed in E. coli TG1
- binding result [1]: no binding
- EC50 [2]: 72.5 nM
- Kd [3]: 32.2 nM
- % inhibition of hTFPI activity [4]: 28%
- dPT in hemoA plasma [4]: 76.5 s
- binding result [5]: no binding

B2: TP-2G7 Fab (Fab, V domains shown)
VH: QVQLVESGGGLVQPGGSLRLSCAASGFTFNSYAMSWVRQAPGKGLEWVSNISSNSSNTYYADSVKGRFTISRDNSKNTLYLQMNSLRAEDTAVYYCARKGGGEHGFFPSDIWGQGTLVTVSS
VL: DIELTQPPSVSVAPGQTARISCSGDNLGTYYVHWYQQKPGQAPVLVIYGDNNRPSGIPERFSGSNSGNTATLTISGTQAEDEADYYCQTYDSNNESIVFGGGTKLTVLG
notes: as for B1
- binding result [1]: no binding
- EC50 [2]: 23.5 nM
- Kd [3]: 26.9 nM
- % inhibition of hTFPI activity [4]: 55%
- dPT in hemoA plasma [4]: 72.2 s
- binding result [5]: no binding

B3: TP-2C1 Fab (Fab, V domains shown)
VH: QVQLVESGGGLVQPGGSLRLSCAASGFTFSPYVMSWVRQAPGKGLEWVSSISSSSSNTYYADSVKGRFTISRDNSKNTLYLQMNSLRAEDTAVYYCARGDSYMYDVWGQGTLVTVSS
VL: DIELTQPPSVSVAPGQTARISCSGDSIGSYYAHWYQQKPGQAPVLVIYYDSKRPSGIPERFSGSNSGNTATLTISGTQAEDEADYYCQAYTGQSISRVFGGGTKLTVLG
notes: as for B1
- binding result [1]: no binding
- EC50 [2]: 0.4 nM
- Kd [3]: 2.64 nM
- % inhibition of hTFPI activity [4]: 21%
- dPT in hemoA plasma [4]: 70.9 s
- binding result [5]: no binding

B4: TP-4G8 Fab (Fab, V domains shown)
VH: QVQLVESGGGLVQPGGSLRLSCAASGFTFSTYAMHWVRQAPGKGLEWVSTISGYGSFTYYADSVKGRFTISRDNSKNTLYLQMNSLRAEDTAVYYCARNGRKYGQMDNWGQGTLVTVSS
VL: DIELTQPPSVSVAPGQTARISCSGDKLGSKSVHWYQQKPGQAPVLVIYRDTDRPSGIPERFSGSNSGNTATLTISGTQAEDEADYYCQTYDYILNVFGGGTKLTVLG
notes: as for B1
- binding result [1]: no binding
- EC50 [2]: 847 nM
- Kd [3]: 25.2 nM
- % inhibition of hTFPI activity [4]: 39%
- dPT in hemoA plasma [4]: 73.9 s
- binding result [5]: no binding

The remaining lines, values ahead:

- binding result [6]: no binding
B5: TP-3G1 chimeric IgG (antibody, V domains shown)
VH: QVQLQQSGPGLVKPSQTLSLTCAISGDSVSSNSGGWGWIRQSPGRGLEWLGLIYYRSKWYNAYAVSVKSRITINPDTSKNQFSLQLNSVTPEDTAVYYCARYLGSNFYVYSDVWGQGTLVTVSS
VL: DIQMTQSPSSLSASVGDRVTITCRASQGISSYLHWYQQKPGKAPKLLIYGASTLQSGVPSRFSGSGSGTDFTLTISSLQPEDFATYYCQQQNGYPFTFGQGTKVEIKR
notes: Chimeric IgG: human variable regions on mouse constant regions, murine IgG1 isotype, made in HKB11 cells

- binding result [6]: no binding
- fold change of EC50 against 2G6-Fab [7]: 10 fold
- fold change of EC50 against 2G6-Fab [8]: 2 fold
- EC50 [9]: 0.22 nM
- EC50 [10]: 0.51 nM
B6: 2G6-IgG (antibody, V domains shown)
VH: QVQLQQSGPGLVKPSQTLSLTCAISGDSVSSSSAAWSWIRQSPGRGLEWLGIIYYRSKWYNDYAVSVKSRITINPDTSKNQFSLQLNSVTPEDTAVYYCARHSMVGFDVWGQGTLVTVSS
VL: DIVLTQSPATLSLSPGERATLSCRASQYVTSSYLAWYQQKPGQAPRLLIYGSSRATGVPARFSGSGSGTDFTLTISSLEPEDFATYYCQQYSSSPITFGQGTKVEIKR
notes: Chimeric IgG: human variable regions on mouse constant regions, murine IgG1 isotype, made in HKB11 cells; also called IgG-2G6; TP-2G6 chimeric IgG

- binding result [6]: no binding
B7: TP-3C2 chimeric IgG (antibody, V domains shown)
VH: B6 VH with I52M, D62H, H102G, S103G, M104S, V105G, G106V, F107M
VL: DIQMTQSPSSLSASVGDRVTITCRASQSITNYLNWYQQKPGKAPKLLIYDVSNLQSGVPSRFSGSGSGTDFTLTISSLQPEDFAVYYCQQYSGYPLTFGQGTKVEIKR
notes: as for B5

- binding result [1]: no binding
- EC50 [2]: 36.9 nM
- Kd [3]: 35.9 nM
- % inhibition of hTFPI activity [4]: 29%
- dPT in hemoA plasma [4]: 71.9 s
- binding result [5]: no binding
B8: TP-4E8 Fab (Fab, V domains shown)
VH: QVQLVESGGGLVQPGGSLRLSCAASGFTFNDYAMSWVRQAPGKGLEWVSLIESVSSSTYYADSVKGRFTISRDNSKNTLYLQMNSLRAEDTAVYYCARTIGVLWDDVWGQGTLVTVSS
VL: DIELTQPPSVSVAPGQTARISCSGDALGSKYVSWYQQKPGQAPVLVIYGDNKRPSGIPERFSGSNSGNTATLTISGTQAEDEADYYCQSYTYSLNQVFGGGTKLTVLG
notes: as for B1

- binding result [6]: no binding
B9: TP-4B7 chimeric IgG (antibody, V domains shown)
VH: QVQLQQSGPGLVKPSQTLSLTCAISGDSVSSNSAAWSWIRQSPGRGLEWLGIIYKRSKWYNDYAVSVKSRITINPDTSKNQFSLQLNSVTPEDTAVYYCARWHSDKHWGFDYWGQGTLVTVSS
VL: DIVMTQSPLSLPVTPGEPASISCRSSQSLVFSDGNTYLNWYLQKPGQSPQLLIYKGSNRASGVPDRFSGSGSGTDFTLKISRVEAEDVGVYYCQQYDSYPLTFGQGTKVEIKR
notes: as for B5
